Values belong to the binder of their own block, whether it stands above or below them.
Legend:
Test in all cases: holdup assay
Design in all cases: key: below the threshold = too weak to quantify, mostly under pKd 3.1 to 4
AHNAK1, Q09666 = target: AHNAK1, Q09666
APBA1_2, Q02410 = target: T1, APBA1_2, Q02410
T1 sequence (Q02410 742-832, limits assumed, looked up): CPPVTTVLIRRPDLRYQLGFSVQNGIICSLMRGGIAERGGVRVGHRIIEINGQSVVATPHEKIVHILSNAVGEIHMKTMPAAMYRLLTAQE

APBA2_1, Q99767 = target: T2, APBA2_1, Q99767
T2 sequence (Q99767 563-664, limits assumed, looked up): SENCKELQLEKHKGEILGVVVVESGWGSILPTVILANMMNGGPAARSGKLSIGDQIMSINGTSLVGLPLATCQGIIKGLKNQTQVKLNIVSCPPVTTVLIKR

APBA3_1, O96018 = target: T3, APBA3_1, O96018
T3 sequence (O96018 389-490, limits assumed, looked up): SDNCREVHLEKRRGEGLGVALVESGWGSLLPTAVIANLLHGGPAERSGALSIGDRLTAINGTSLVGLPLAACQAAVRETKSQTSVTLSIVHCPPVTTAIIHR

CARD11, Q9BXL7 = target: T4, CARD11, Q9BXL7
T4 sequence (Q9BXL7 662-765, limits assumed, looked up): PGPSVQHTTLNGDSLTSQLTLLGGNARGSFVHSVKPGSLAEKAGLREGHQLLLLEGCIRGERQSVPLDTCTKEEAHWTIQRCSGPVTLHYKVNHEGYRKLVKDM

CASK, O14936 = target: CASK, O14936
Sequence of CASK, O14936 (O14936 487-570): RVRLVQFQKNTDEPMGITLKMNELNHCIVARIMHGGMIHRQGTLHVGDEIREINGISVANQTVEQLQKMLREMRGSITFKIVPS

GORASP1, Q9BQQ3 = target: GORASP1, Q9BQQ3
Sequence of GORASP1, Q9BQQ3 (Q9BQQ3 1-208): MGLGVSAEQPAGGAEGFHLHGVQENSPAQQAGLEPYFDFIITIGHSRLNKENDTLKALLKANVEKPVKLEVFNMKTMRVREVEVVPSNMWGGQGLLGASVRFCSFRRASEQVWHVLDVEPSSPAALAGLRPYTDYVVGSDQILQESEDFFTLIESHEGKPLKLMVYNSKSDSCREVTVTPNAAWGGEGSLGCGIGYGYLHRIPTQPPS

GRASP, Q7Z6J2 = target: GRASP, Q7Z6J2
Sequence of GRASP, Q7Z6J2 (Q7Z6J2 96-193): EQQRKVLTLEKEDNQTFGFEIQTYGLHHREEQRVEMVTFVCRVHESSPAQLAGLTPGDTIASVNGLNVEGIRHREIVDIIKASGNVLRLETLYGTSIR

GRIP1_2, Q9Y3R0 = target: T5, GRIP1_2, Q9Y3R0
T5 sequence (Q9Y3R0 145-248, limits assumed, looked up): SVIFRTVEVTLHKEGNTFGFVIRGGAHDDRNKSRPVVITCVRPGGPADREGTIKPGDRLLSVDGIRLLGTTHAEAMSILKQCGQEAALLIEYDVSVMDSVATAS

GRIP1_4, Q9Y3R0 = target: T6, GRIP1_4, Q9Y3R0
T6 sequence (Q9Y3R0 467-571, limits assumed, looked up): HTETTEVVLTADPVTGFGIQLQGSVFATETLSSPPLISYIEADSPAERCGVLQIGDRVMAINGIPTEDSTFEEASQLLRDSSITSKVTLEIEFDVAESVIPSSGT

HTRA2, O43464 = target: HTRA2, O43464
Sequence of HTRA2, O43464 (O43464 355-458): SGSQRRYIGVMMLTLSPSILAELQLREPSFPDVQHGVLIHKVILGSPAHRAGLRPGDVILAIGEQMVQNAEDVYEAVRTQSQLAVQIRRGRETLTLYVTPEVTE

Inadl_3, Q8NI35 = target: Inadl_3, Q8NI35
Sequence of Inadl_3, Q8NI35 (Q8NI35 359-469): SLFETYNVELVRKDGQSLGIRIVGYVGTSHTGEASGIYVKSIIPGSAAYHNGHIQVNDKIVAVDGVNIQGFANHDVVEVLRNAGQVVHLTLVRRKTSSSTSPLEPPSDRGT

Inadl_5, Q8NI35 = target: Inadl_5, Q8NI35
Sequence of Inadl_5, Q8NI35 (Q8NI35 673-780): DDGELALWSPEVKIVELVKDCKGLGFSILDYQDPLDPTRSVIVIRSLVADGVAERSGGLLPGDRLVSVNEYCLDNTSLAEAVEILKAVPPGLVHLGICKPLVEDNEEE

LNX1_2, Q8TBB1 = target: LNX1_2, Q8TBB1
Sequence of LNX1_2, Q8TBB1 (Q8TBB1 371-470): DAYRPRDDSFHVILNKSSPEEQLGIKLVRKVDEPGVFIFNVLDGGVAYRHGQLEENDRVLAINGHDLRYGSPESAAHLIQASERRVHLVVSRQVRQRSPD

LNX2_2, Q8N448 = target: T7, LNX2_2, Q8N448
T7 sequence (Q8N448 334-432, limits assumed, looked up): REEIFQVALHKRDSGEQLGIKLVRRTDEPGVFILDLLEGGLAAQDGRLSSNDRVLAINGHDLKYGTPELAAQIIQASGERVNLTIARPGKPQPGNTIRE

MAGI2_5, Q86UL8 = target: MAGI2_5, Q86UL8
Sequence of MAGI2_5, Q86UL8 (Q86UL8 915-1017): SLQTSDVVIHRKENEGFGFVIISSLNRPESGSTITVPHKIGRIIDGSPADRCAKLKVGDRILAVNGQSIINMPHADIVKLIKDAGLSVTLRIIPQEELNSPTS

MAST1, Q9Y2H9 = target: MAST1, Q9Y2H9
Sequence of MAST1, Q9Y2H9 (Q9Y2H9 962-1065): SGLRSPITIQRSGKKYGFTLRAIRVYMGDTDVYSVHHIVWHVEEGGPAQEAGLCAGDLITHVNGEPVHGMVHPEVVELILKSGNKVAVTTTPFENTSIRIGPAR

MPDZ_12, O75970 = target: T8, MPDZ_12, O75970
T8 sequence (O75970 1857-1958, limits assumed, looked up): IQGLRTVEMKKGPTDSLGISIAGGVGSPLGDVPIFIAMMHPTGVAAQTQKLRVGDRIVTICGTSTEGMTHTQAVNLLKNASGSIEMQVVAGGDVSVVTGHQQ

MPP7, Q5T2T1 = target: T9, MPP7, Q5T2T1
T9 sequence (Q5T2T1 134-230, limits assumed, looked up): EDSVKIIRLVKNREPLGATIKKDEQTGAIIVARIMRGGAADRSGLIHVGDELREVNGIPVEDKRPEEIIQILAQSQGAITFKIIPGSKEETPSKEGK

NHERF3_3, Q5T2W1 = target: T10, NHERF3_3, Q5T2W1
T10 sequence (Q5T2W1 238-333, limits assumed, looked up): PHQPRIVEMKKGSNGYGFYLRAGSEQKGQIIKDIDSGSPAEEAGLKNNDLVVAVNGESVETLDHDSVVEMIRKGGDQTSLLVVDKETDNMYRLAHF

PDZD7_3, Q9H5P4 = target: T11, PDZD7_3, Q9H5P4
T11 sequence (Q9H5P4 857-944, limits assumed, looked up): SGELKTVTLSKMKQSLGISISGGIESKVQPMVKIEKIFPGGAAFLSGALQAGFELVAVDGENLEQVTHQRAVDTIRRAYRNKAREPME

PTPN13_1, Q12923 = target: T12, PTPN13_1, Q12923
T12 sequence (Q12923 1088-1188, limits assumed, looked up): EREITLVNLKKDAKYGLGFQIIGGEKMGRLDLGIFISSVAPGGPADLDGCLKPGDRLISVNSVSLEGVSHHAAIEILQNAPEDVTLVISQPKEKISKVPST

RADIL, Q96JH8 = target: T13, RADIL, Q96JH8
T13 sequence (Q96JH8 971-1071, limits assumed, looked up): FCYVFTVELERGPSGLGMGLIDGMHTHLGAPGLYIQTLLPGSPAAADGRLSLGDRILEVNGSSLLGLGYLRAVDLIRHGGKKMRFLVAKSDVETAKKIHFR

TJP1_2, Q07157 = target: TJP1_2, Q07157
Sequence of TJP1_2, Q07157 (Q07157 181-274): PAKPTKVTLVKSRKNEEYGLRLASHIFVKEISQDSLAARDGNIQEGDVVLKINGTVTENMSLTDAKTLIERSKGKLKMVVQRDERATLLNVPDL

[1] = plain residues with an end cap or a label only (N-terminal biotin on a linker: ahx)
[2] = plain residues with an end cap or a label only (N-terminal biotin on a linker: ttds)

Sequence of AHNAK1, Q09666 (Q09666 4-100): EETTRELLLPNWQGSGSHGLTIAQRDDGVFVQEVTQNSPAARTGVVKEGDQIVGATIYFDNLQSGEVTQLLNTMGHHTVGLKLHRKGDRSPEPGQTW

pKd (AHNAK1, Q09666; [1]): below the threshold
pKd (APBA1_2, Q02410; [1]): 3.99
pKd (APBA2_1, Q99767; [1]): below the threshold
pKd (APBA3_1, O96018; [1]): below the threshold
pKd (CARD11, Q9BXL7; [1]): below the threshold
pKd (CASK, O14936; [1]): below the threshold
pKd (GORASP1, Q9BQQ3; [1]): below the threshold
pKd (GRASP, Q7Z6J2; [1]): 4.31
pKd (GRIP1_2, Q9Y3R0; [1]): below the threshold
pKd (GRIP1_4, Q9Y3R0; [1]): below the threshold
pKd (HTRA2, O43464; [1]): below the threshold
pKd (Inadl_3, Q8NI35; [1]): 3.5
pKd (Inadl_5, Q8NI35; [1]): below the threshold
pKd (LNX1_2, Q8TBB1; [1]): below the threshold
pKd (LNX2_2, Q8N448; [1]): 4.27
pKd (MAGI2_5, Q86UL8; [1]): 5.32
pKd (MAST1, Q9Y2H9; [1]): 4.38
pKd (MPDZ_12, O75970; [1]): below the threshold
pKd (MPP7, Q5T2T1; [1]): below the threshold
pKd (NHERF3_3, Q5T2W1; [1]): below the threshold
pKd (PDZD7_3, Q9H5P4; [1]): 4.63
pKd (PTPN13_1, Q12923; [1]): below the threshold
pKd (RADIL, Q96JH8; [1]): 3.61
pKd (TJP1_2, Q07157; [1]): below the threshold
B1: DLL1, O00548 (peptide)
chain: KDECVIATEV

pKd (AHNAK1, Q09666; [2]): below the threshold
pKd (APBA1_2, Q02410; [2]): below the threshold
pKd (APBA2_1, Q99767; [2]): below the threshold
pKd (APBA3_1, O96018; [2]): below the threshold
pKd (CARD11, Q9BXL7; [2]): below the threshold
pKd (CASK, O14936; [2]): below the threshold
pKd (GORASP1, Q9BQQ3; [2]): below the threshold
pKd (GRASP, Q7Z6J2; [2]): below the threshold
pKd (GRIP1_2, Q9Y3R0; [2]): 3.63
pKd (GRIP1_4, Q9Y3R0; [2]): below the threshold
pKd (HTRA2, O43464; [2]): 3.52
pKd (Inadl_3, Q8NI35; [2]): below the threshold
pKd (Inadl_5, Q8NI35; [2]): below the threshold
pKd (LNX1_2, Q8TBB1; [2]): below the threshold
pKd (LNX2_2, Q8N448; [2]): 3.48
pKd (MAGI2_5, Q86UL8; [2]): below the threshold
pKd (MAST1, Q9Y2H9; [2]): 4.19
pKd (MPDZ_12, O75970; [2]): below the threshold
pKd (MPP7, Q5T2T1; [2]): below the threshold
pKd (NHERF3_3, Q5T2W1; [2]): below the threshold
pKd (PDZD7_3, Q9H5P4; [2]): 3.59
pKd (PTPN13_1, Q12923; [2]): below the threshold
pKd (RADIL, Q96JH8; [2]): below the threshold
pKd (TJP1_2, Q07157; [2]): below the threshold
B2: PODXL, O00592 (peptide)
chain: DLDEEEDTHL

pKd (AHNAK1, Q09666; [2]): below the threshold
pKd (APBA1_2, Q02410; [2]): 3.74
pKd (APBA2_1, Q99767; [2]): below the threshold
pKd (APBA3_1, O96018; [2]): below the threshold
pKd (CARD11, Q9BXL7; [2]): below the threshold
pKd (CASK, O14936; [2]): below the threshold
pKd (GORASP1, Q9BQQ3; [2]): below the threshold
pKd (GRASP, Q7Z6J2; [2]): 3.66
pKd (GRIP1_2, Q9Y3R0; [2]): below the threshold
pKd (GRIP1_4, Q9Y3R0; [2]): below the threshold
pKd (HTRA2, O43464; [2]): below the threshold
pKd (Inadl_3, Q8NI35; [2]): below the threshold
pKd (Inadl_5, Q8NI35; [2]): below the threshold
pKd (LNX1_2, Q8TBB1; [2]): below the threshold
pKd (LNX2_2, Q8N448; [2]): below the threshold
pKd (MAGI2_5, Q86UL8; [2]): below the threshold
pKd (MAST1, Q9Y2H9; [2]): 4.65
pKd (MPDZ_12, O75970; [2]): below the threshold
pKd (MPP7, Q5T2T1; [2]): below the threshold
pKd (NHERF3_3, Q5T2W1; [2]): below the threshold
pKd (PDZD7_3, Q9H5P4; [2]): 3.86
pKd (PTPN13_1, Q12923; [2]): below the threshold
pKd (RADIL, Q96JH8; [2]): below the threshold
pKd (TJP1_2, Q07157; [2]): below the threshold
B3: MAPK12, P53778 (peptide)
chain: GARVSKETPL
